Laboratory results published in article PMC9909464, “The human MRS2 magnesium-binding domain is a regulatory feedback switch for channel activity” (Life Science Alliance, 2023).

Assays:
[1] = biological target: the molecule itself; assay: dynamic light scattering; 0.5 mg/ml in 20 mM Tris, 150 mM NaCl, 1 mM DTT, 10 mM CHAPS, pH 8.0, 37°C; no divalent cations (5 mM MgCl2 or 5 mM CaCl2 gave no change); higher order oligomers
[2] = biological target: the molecule itself; assay: SEC-MALS; Superdex 200 Increase 10/300 GL, 20 mM Tris, 150 mM NaCl, 1 mM DTT, pH 8.0, ~10°C; no divalent cations; injected at 0.45-5 mg/ml; monomer to dimer

B1: full-length human MRS2 excluding the mitochondrial targeting sequence, MRS2_(58–443) (natural protein, UniProt Q9HD23 58-443, looked up)
chain: DRLRVAGEVHRFRTSDVSQATLASVAPVFTVTKFDKQGNVTSFERKKTELYQELGLQARDLRFQHVMSITVRNNRIIMRMEYLKAVITPECLLILDYRNLNLEQWLFRELPSQLSGEGQLVTYPLPFEFRAIEALLQYWINTLQGKLSILQPLILETLDALVDPKHSSVDRSKLHILLQNGKSLSELETDIKIFKESILEILDEEELLEELCVSKWSDPQVFEKSSAGIDHAEEMELLLENYYRLADDLSNAARELRVLIDDSQSIIFINLDSHRNVMMRLNLQLTMGTFSLSLFGLMGVAFGMNLESSLEEDHRIFWLITGIMFMGSGLIWRRLLSFLGRQLEAPLPPMMASLPKKTLLADRSMELKNSLRLDGLGSGRSILTNR
notes: in CHAPS micelles in the assay; also called full-length MRS2; source: E. coli BL21 (DE3), purified as the NTD with 10 mM CHAPS in elution and SEC buffers; not shown: His6, N-terminal, cleaved
B1: binds [1].

B2: human MRS2 amino terminal domain, MRS2_(58–333) (domain or fragment, UniProt Q9HD23 58-333, looked up)
chain: DRLRVAGEVHRFRTSDVSQATLASVAPVFTVTKFDKQGNVTSFERKKTELYQELGLQARDLRFQHVMSITVRNNRIIMRMEYLKAVITPECLLILDYRNLNLEQWLFRELPSQLSGEGQLVTYPLPFEFRAIEALLQYWINTLQGKLSILQPLILETLDALVDPKHSSVDRSKLHILLQNGKSLSELETDIKIFKESILEILDEEELLEELCVSKWSDPQVFEKSSAGIDHAEEMELLLENYYRLADDLSNAARELRVLIDDSQSIIFINLDSHRN
notes: Cloned into pET-28a by NdeI and XhoI; also called MRS2 NTD; NTD; source: E. coli BL21 (DE3), purified (nickel-NTA, thrombin cleavage, SEC S200); not shown: His6, N-terminal, cleaved
B2 was tested, and the “stoichiometry N” value [2] was 2.

B3: MRS2_(58–333) D216A/D220A (domain or fragment, human, UniProt Q9HD23 58-333, looked up)
chain: DRLRVAGEVHRFRTSDVSQATLASVAPVFTVTKFDKQGNVTSFERKKTELYQELGLQARDLRFQHVMSITVRNNRIIMRMEYLKAVITPECLLILDYRNLNLEQWLFRELPSQLSGEGQLVTYPLPFEFRAIEALLQYWINTLQGKLSILQPLILETLAALVAPKHSSVDRSKLHILLQNGKSLSELETDIKIFKESILEILDEEELLEELCVSKWSDPQVFEKSSAGIDHAEEMELLLENYYRLADDLSNAARELRVLIDDSQSIIFINLDSHRN
notes: also called D216A/D220A MRS2 NTD double mutant; not shown: His6, N-terminal, cleaved
With B3 the “stoichiometry N” value [2] was 2.
